Test results reported in patent US20180258163A1 (Chugai, published 2018).
Like-named read-outs stand apart in the source and are kept apart here. Each block holds one binder with its values, some of them ahead of it.

What was measured:
human IL-8 [1] = target: T1, human IL-8 (human, UniProt P10145 23-99, limits assumed); assay: SPR pH 5.8 37C
T1 construct: also called hIL-8
T1 sequence: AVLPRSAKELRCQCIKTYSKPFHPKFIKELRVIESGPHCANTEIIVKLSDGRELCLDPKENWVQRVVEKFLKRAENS
Description: (§1) The following two running buffers were used, and measurements were carried out at the respective temperatures: (1) 0.05% tween20, 40 mM ACES, 150 mM NaCl, pH 7.4, 40° C.: and (2) 0.05% tween20, 40 mM ACES, 150 mM NaCl, pH 5.8, 37° C.
(§2) An appropriate amount of Protein A/G (PIERCE) was immobilized onto the Sensor chip CM4 (GE Healthcare) by the amine coupling method and the antibodies of interest were captured. Next, a diluted human IL-8 solution or a running buffer (used as a reference solution) was injected to allow interaction of the antibodies captured onto the sensor chip with human IL-8. For the running buffer, either one of the above-mentioned solutions was used, and the respective buffers were also used to dilute human IL-8. To regenerate the sensor chip, 25 mM NaOH and 10 mM glycine-HCl (pH 1.5) were used. KD (M) of each antibody for human IL-8 was calculated based on the association rate constant kon (1/Ms) and dissociation rate constant koff (1/s) which are kinetic parameters calculated from sensorgrams obtained by the measurements. The BIACORE T200 Evaluation Software (GE Healthcare) was used to calculate each parameter.

human IL-8 [2] = target: T1, human IL-8; assay: SPR pH 7.4 40C; 50C 1 week in PBS against initial
Description: The levels of human IL-8 binding to the modified antibodies were analyzed using BIACORE T200 (GE Healthcare). Measurements were carried out at 40° C. by using 0.05% tween20, 40 mM ACES, and 150 mM NaCl at pH 7.4 as the running buffer.
An appropriate amount of Protein A/G (PIERCE) was immobilized onto the Sensor chip CM4 (GE Healthcare) by the amine coupling method and the antibodies of interest was captured. Next, a diluted human IL-8 solution or a running buffer (used as a reference solution) was injected to allow interaction of the antibodies captured onto the sensor chip with human IL-8. The running buffer was also used to dilute human IL-8. To regenerate the sensor chip, 25 mM NaOH and 10 mM glycine-HCl (pH 1.5) were used. The measured binding level of human IL-8 and the amount of antibodies captured at that binding level were extracted using the BIACORE T200 Evaluation Software (GE Healthcare).
The amount of human IL-8-binding per 1000 RU of the amount of antibody captured was calculated for the initial samples and the samples for the thermal acceleration test. Furthermore, the ratio of the human IL-8-binding level for the initial samples to that for samples of the thermal acceleration test was calculated.

human IgE [3] = target: T2, human IgE (human, UniProt P01854-1 1-428); assay: SPR, Ab captured, IgE analyte, pH 5.8, 25C
T2 construct: whole IgE; also called hIgE
T2 sequence (P01854 other isoform, or with tags, fused parts or gaps): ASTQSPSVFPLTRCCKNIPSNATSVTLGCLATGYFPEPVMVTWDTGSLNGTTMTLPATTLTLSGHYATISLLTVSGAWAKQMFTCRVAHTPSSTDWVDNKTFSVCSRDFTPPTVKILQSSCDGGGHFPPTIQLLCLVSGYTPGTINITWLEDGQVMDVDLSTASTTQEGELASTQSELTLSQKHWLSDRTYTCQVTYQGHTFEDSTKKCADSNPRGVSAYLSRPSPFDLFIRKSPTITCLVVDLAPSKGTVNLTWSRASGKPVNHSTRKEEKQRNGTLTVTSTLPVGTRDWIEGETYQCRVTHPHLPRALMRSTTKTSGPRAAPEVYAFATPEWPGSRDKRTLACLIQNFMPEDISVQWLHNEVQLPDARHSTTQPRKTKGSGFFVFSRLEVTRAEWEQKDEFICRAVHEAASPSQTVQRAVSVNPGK
Description: (§3) An appropriate amount of Protein A/G (ACTIGEN) was fixed onto Sensor chip CM4 (GE Healthcare) by the amine coupling method to capture the antibodies of interest. Next, human IgE was made to interact with the antibodies captured onto the sensor chip by injecting a diluted IgE solution and a running buffer (used as a reference solution). For the running buffer, either of the buffers (1) and (2) above was used, and human IgE was diluted using the respective buffer. To regenerate the sensor chip, 10 mM glycine-HCl at pH 1.5 was used. All measurements were carried out at 25° C. KD (M) for human IgE was calculated for each antibody based on the association rate constant ka (1/Ms) and dissociation rate constant kd (1/s), which are kinetic parameters calculated from the sensorgrams obtained by the measurements. The BIACORE T100 Evaluation Software (GE Healthcare) was used to calculate each parameter.

human IgE [4] = target: T2, human IgE; assay: SPR, Ab captured, IgE analyte, pH 7.4, 25C
Description: as §3

soluble human FcγRIIb [5] = target: T3, soluble human FcγRIIb (human, UniProt P31994 43-217, limits assumed); assay: SPR, Ab-IgE complex over captured hFcγRIIb, pH 7.4, 25C
T3 construct: soluble His-tagged form; also called hFcγRIIb
T3 sequence (looked up): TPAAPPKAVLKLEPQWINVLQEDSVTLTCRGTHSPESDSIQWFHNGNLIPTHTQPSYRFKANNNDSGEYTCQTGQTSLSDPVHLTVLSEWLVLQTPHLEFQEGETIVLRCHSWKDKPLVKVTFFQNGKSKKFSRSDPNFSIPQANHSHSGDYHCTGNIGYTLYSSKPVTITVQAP
Description: (§4) Regarding the produced Fc region variant-containing antibodies, binding assays between soluble human FcγRIIb and antigen-antibody complexes were performed using BIACORE T200 (GE Healthcare). Soluble human FcγRIIb (NCBI accession NM_004001.3) was produced in the form of a His-tagged molecule by a method known in the art. An appropriate amount of an anti-His antibody was fixed onto Sensor chip CM5 (GE Healthcare) by the amine coupling method using a His capture kit (GE Healthcare) to capture human FcγRIIb. Next, an antibody-antigen complex and a running buffer (as a reference solution) were injected, and interaction was allowed to take place with the human FcγRIIb captured onto the sensor chip. 20 mM N-(2-Acetamido)-2-aminoethanesulfonic acid, 150 mM NaCl, 1.2 mM CaCl₂, and 0.05% (w/v) Tween 20 at pH 7.4 was used as the running buffer, and the respective buffer was also used to dilute the soluble human FcγRIIb. To regenerate the sensor chip, 10 mM glycine-HCl at pH 1.5 was used. All measurements were carried out at 25° C. Analyses were performed based on binding (RU) calculated from sensorgrams obtained by the measurements, and relative values when the binding amount of Ab1H/Ab1L (original Ab1) was defined as 1.00 are shown. To calculate the parameters, the BIACORE T100 Evaluation Software (GE Healthcare) was used.

soluble human FcγRIIb [6] = target: T3, soluble human FcγRIIb; assay: as above; remark: listed apart in the source
Description: as §4

soluble human FcγRIIb [7] = target: T3, soluble human FcγRIIb; assay: as above; remark: listed apart in the source
Description: as §4

human IL-8 [8] = target: T1, human IL-8; assay: SPR pH 7.4 40C
Description: as §1, §2

- Ratio of IL-8 Amount (Thermal Acceleration/Initial) (human IL-8 [2]): 0.49
B2: H1040/L0442 (antibody, human IgG1, kappa, name in Kabat numbering, V domains shown)
VH: QVQLVESGGGLVQPGGSLRLSCAASGFTFSEYYLSWVRQAPGKGLEWVGLIRNKDNHHHPEYSASVKGRFTISRDDSKNSLYLTMSDLKTEDTAVYYCARENHRYDVELAYWGQGTLVTVSS
VL: DIQMTQSPSSLSASVGDRVTITCRASEIIYEYLAWYQQKPGKAPKLLIYKAKTHADGVPSRFSGSGSGTDFTFTISSLQPEDIATYYCKHHFGFPRTFGQGTKVEIKR

- Kd (human IL-8 [1]): 7700 nM
B3: H1050/L0395 (antibody, human IgG1, kappa, name in Kabat numbering, V domains shown)
VH: QVQLVESGGGLVQPGGSLRLSCAASGFTFSEYYLSWVRQAPGKGLEWVGLIRNKDNYHTPEYSASVKGRFTISRDDSKNSLYLTMSDLKTEDTAVYYCARENHRYDVELAYWGQGTLVTVSS
VL: DIQMTQSPSSLSASVGDRVTITCRASEIIYSYLAWYQQKPGKAPKLLIYKAKTHADGVPSRFSGSGSGTDFTFTISSLQPEDIATYYCKHHFGFPRTFGQGTKVEIKR

- Kd (human IgE [3]): 2400 nM
- koff (human IgE [3]): 0.039 s⁻¹
- kon (human IgE [3]): 16000 M⁻¹ s⁻¹
- Kd (human IgE [4]): 2.3 nM
- koff (human IgE [4]): 0.006 s⁻¹
- kon (human IgE [4]): 2.7e+06 M⁻¹ s⁻¹
- BIACORE fold (relative binding, original Ab1=1.00) (soluble human FcγRIIb [5]): 1 fold
- BIACORE fold (relative binding, original Ab1=1.00) (soluble human FcγRIIb [6]): 1 fold
- BIACORE fold (relative binding, original Ab1=1.00) (soluble human FcγRIIb [7]): 1 fold
B4: Ab1 (antibody, human IgG1, kappa)
heavy: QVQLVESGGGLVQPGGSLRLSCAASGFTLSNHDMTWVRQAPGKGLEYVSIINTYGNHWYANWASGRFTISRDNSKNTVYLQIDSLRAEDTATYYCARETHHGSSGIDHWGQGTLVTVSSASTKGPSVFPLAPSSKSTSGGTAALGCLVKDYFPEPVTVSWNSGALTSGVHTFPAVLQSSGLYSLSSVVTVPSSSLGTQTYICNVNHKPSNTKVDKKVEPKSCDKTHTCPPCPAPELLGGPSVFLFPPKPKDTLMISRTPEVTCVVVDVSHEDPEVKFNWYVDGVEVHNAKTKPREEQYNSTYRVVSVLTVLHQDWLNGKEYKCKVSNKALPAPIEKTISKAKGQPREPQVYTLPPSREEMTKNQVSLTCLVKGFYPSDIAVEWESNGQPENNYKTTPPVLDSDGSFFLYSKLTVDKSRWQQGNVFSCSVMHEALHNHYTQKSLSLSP
light: DIQMTQSPSSVSASVGDRVTITCQASESIYSGLAWYQQKPGQPPKLLIYDHSTLASGVPSRFSGSGSGTEYALTISSLQPEDFATYYCQHADYAHHSDNVFGGGTKVEIKRTVAAPSVFIFPPSDEQLKSGTASVVCLLNNFYPREAKVQWKVDNALQSGNSQESVTEQDSKDSTYSLSSTLTLSKADYEKHKVYACEVTHQGLSSPVTKSFNRGEC
notes: also called Ab1H/Ab1L; original Ab1; copies: 2 + 2

- Kd (human IL-8 [1]): 7100 nM
- koff (human IL-8 [1]): 0.017 s⁻¹
- Kd (human IL-8 [8]): 0.12 nM
B6: H1023/L0442 (antibody, human IgG1, kappa, name in Kabat numbering, V domains shown)
VH: QVQLVESGGGLVQPGGSLRLSCAASGFTFSDYYLSWVRQAPGKGLEWVGLIRNKDNGYHPEYSASVKGRFTISRDDSKNSLYLTMSDLKTEDTAVYYCARENHRYDVELAYWGQGTLVTVSS
VL: DIQMTQSPSSLSASVGDRVTITCRASEIIYEYLAWYQQKPGKAPKLLIYKAKTHADGVPSRFSGSGSGTDFTFTISSLQPEDIATYYCKHHFGFPRTFGQGTKVEIKR

The remaining lines, values behind:

B1: H1000/L0442 (antibody, human IgG1, kappa, name in Kabat numbering, V domains shown)
VH: QVQLVESGGGLVQPGGSLRLSCAASGFTFSEYYLSWVRQAPGKGLEWVGLIRNKDNHHTPEYSASVKGRFTISRDDSKNSLYLTMSDLKTEDTAVYYCARENHRYDVELAYWGQGTLVTVSS
VL: DIQMTQSPSSLSASVGDRVTITCRASEIIYEYLAWYQQKPGKAPKLLIYKAKTHADGVPSRFSGSGSGTDFTFTISSLQPEDIATYYCKHHFGFPRTFGQGTKVEIKR
- Kd (human IL-8 [1]): 71000 nM

B5: H1009/L395 (antibody, human IgG1, kappa)
heavy: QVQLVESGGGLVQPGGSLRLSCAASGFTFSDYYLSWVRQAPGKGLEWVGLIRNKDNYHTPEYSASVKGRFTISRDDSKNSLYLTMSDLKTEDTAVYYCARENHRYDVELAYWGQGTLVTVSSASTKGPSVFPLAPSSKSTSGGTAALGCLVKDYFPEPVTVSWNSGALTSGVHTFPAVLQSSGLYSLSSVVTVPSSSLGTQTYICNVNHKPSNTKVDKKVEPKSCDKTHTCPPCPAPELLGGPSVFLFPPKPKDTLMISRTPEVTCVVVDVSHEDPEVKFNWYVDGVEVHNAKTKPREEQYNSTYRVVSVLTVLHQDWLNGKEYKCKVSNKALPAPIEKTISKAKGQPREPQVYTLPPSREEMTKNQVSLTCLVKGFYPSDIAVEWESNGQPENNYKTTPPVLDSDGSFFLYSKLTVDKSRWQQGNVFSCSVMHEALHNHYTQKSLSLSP
light: DIQMTQSPSSLSASVGDRVTITCRASEIIYSYLAWYQQKPGKAPKLLIYKAKTHADGVPSRFSGSGSGTDFTFTISSLQPEDIATYYCKHHFGFPRTFGQGTKVEIKRTVAAPSVFIFPPSDEQLKSGTASVVCLLNNFYPREAKVQWKVDNALQSGNSQESVTEQDSKDSTYSLSSTLTLSKADYEKHKVYACEVTHQGLSSPVTKSFNRGEC
notes: also called H1009/L0395; H1009/L395-IgG1
- Ratio of IL-8 Amount (Thermal Acceleration/Initial) (human IL-8 [2]): 0.64

B7: H1023/L0395 (antibody, human IgG1, kappa, name in Kabat numbering, V domains shown)
VH: QVQLVESGGGLVQPGGSLRLSCAASGFTFSDYYLSWVRQAPGKGLEWVGLIRNKDNGYHPEYSASVKGRFTISRDDSKNSLYLTMSDLKTEDTAVYYCARENHRYDVELAYWGQGTLVTVSS
VL: DIQMTQSPSSLSASVGDRVTITCRASEIIYSYLAWYQQKPGKAPKLLIYKAKTHADGVPSRFSGSGSGTDFTFTISSLQPEDIATYYCKHHFGFPRTFGQGTKVEIKR
- Kd (human IL-8 [1]): 92 nM
- koff (human IL-8 [1]): 0.018 s⁻¹
- Kd (human IL-8 [8]): 0.076 nM
